# What was measured:
# Assay in all cases: purified protein
# Details in all cases: HEPES buffer supplemented with zinc; room temperature
# [1] = test system: CCN1CCN(C(=O)N[C@@H](C(=O)N[C@@H]2C(=O)N3[C@@H]2SC(C)(C)[C@@H]3C(=O)O)c2ccccc2)C(=O)C1=O
# [2] = test system: CO/N=C(\C(=O)N[C@@H]1C(=O)N2C(C(=O)[O-])=C(C[N+]3(C)CCCC3)CS[C@H]12)c1csc(N)n1
# [3] = test system: C[C@@H](O)[C@H]1C(=O)N2C(C(=O)O)=C(S[C@@H]3CN[C@H](C(=O)N(C)C)C3)[C@H](C)[C@H]12
# [4] = test system: C[C@H]1[C@H](NC(=O)/C(=N\OC(C)(C)C(=O)O)c2csc(N)n2)C(=O)N1S(=O)(=O)O
# [5] = test system: CO/N=C(\C(=O)N[C@@H]1C(=O)N2C(C(=O)O)=C(COC(C)=O)CS[C@H]12)c1csc(N)n1
# [6] = test system: CC(C)(O/N=C(\C(=O)N[C@@H]1C(=O)N2C(C(=O)[O-])=C(C[n+]3ccccc3)CS[C@H]12)c1csc(N)n1)C(=O)O
# [7] = test system: CO[C@@]1(NC(=O)Cc2cccs2)C(=O)N2C(C(=O)O)=C(COC(N)=O)CS[C@@H]21
# [8] = test system: C[C@@H](O)[C@H]1C(=O)N2C(C(=O)O)=C(S[C@@H]3CN[C@H](C(=O)Nc4cccc(C(=O)O)c4)C3)[C@H](C)[C@H]12
# [9] = test system: C[C@@H](O)[C@H]1C(=O)N2C(C(=O)O)=C(SCCN=CN)C[C@H]12
# [10] = test system: CC1(C)S[C@@H]2[C@H](NC(=O)Cc3ccccc3)C(=O)N2[C@H]1C(=O)O
# [11] = test system: CC(=O)OCC1=C(C(=O)O)N2C(=O)[C@@H](NC(=O)Cc3cccs3)[C@H]2SC1
substance,measurement,setting,value
PAN-1 (Pseudobacteriovorax antillogorgiicola),Km,[1],1074.2 µM
same,kcat,[1],73.6 s⁻¹
same,kcat/Km,[1],68000 M⁻¹ s⁻¹
same,kcat,[2],< 0.01 s⁻¹
same,Km,[3],386 µM
same,kcat,[3],22.9 s⁻¹
same,kcat/Km,[3],59000 M⁻¹ s⁻¹
same,kcat,[4],< 0.01 s⁻¹
same,Km,[5],245.7 µM
same,kcat,[5],3.9 s⁻¹
same,kcat/Km,[5],16000 M⁻¹ s⁻¹
same,Km,[6],144.4 µM
same,kcat,[6],8.1 s⁻¹
same,kcat/Km,[6],56000 M⁻¹ s⁻¹
same,Km,[7],13.3 µM
same,kcat,[7],1.9 s⁻¹
same,kcat/Km,[7],143000 M⁻¹ s⁻¹
same,Km,[8],368.5 µM
same,kcat,[8],2.9 s⁻¹
same,kcat/Km,[8],7800 M⁻¹ s⁻¹
same,Km,[9],470.5 µM
same,kcat,[9],43.8 s⁻¹
same,kcat/Km,[9],93100 M⁻¹ s⁻¹
same,Km,[10],161 µM
same,kcat,[10],23.6 s⁻¹
same,kcat/Km,[10],146000 M⁻¹ s⁻¹
same,Km,[11],32.2 µM
same,kcat,[11],6.9 s⁻¹
same,kcat/Km,[11],214000 M⁻¹ s⁻¹
